These are literature values, as cited in PMC8569200.

The data set concerns the target CD137 (Homo sapiens) (UniProt Q07011). Nature of the data set: SPR. Background: Surface plasmon resonance follows binding to a sensor surface in real time, without labels.

CD137L, sequence (P41273 whole entry): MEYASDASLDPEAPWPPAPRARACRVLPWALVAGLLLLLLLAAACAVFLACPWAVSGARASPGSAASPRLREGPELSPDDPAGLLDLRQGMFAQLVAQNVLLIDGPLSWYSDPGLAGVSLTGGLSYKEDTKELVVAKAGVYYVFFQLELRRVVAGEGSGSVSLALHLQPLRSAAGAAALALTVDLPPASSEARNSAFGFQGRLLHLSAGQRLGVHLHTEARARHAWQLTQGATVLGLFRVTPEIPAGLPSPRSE
CD137 (Homo sapiens), sequence (Q07011 24-255): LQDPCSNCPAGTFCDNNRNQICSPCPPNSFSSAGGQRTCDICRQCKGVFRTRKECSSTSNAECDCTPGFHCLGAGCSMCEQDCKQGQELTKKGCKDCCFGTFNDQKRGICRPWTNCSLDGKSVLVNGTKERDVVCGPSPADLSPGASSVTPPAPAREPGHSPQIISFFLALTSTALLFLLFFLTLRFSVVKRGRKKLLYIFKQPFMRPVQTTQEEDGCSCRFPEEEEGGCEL

For CD137L (from UniProt P41273), the Kd is 0.68 µM.

A word on the Kd: it is the concentration at which binding is half-saturated.
